The values that follow come from paper PMC9104846.

Where only a bound is given, the exact number is not on record here.

The target of experiment [1] is Trastuzumab (anti-Her2/neu), full-length IgG. Put plainly: cross-linking.
Experiment [2] has as its target Cetuximab (anti-EGFR), full-length IgG. Put plainly: cross-linking.

As for “pAbBD-(GGS)7-SC-(GGS)4-pAbBD (designed binder)”, the percent of IgG labeled with a single SpyCatcher/SpyTag in experiment [1] and in experiment [2] was > 70% each time.

Consider “pAbBD-(GGS)7-SC-(GGS)7-pAbBD (designed binder)”, for which the percent of IgG labeled with a single SpyCatcher/SpyTag in experiment [1] and in experiment [2] was > 70% each time. For “pAbBD-(GGS)7-ST-(GGS)4-pAbBD (designed binder)”, the percent of IgG labeled with a single SpyCatcher/SpyTag in experiment [1] and in experiment [2] was > 70% each time.

For “pAbBD-(GGS)7-ST-(GGS)7-pAbBD (designed binder)”, the percent of IgG labeled with a single SpyCatcher/SpyTag in experiment [1] and in experiment [2] was > 70% throughout. In experiment [1], “photoreactive antibody-binding domain fused to SpyCatcher (designed binder)” gave a maximum percentage of IgG conjugated to a single pAbBD-SC/ST of 40%. For “photoreactive antibody-binding domain fused to SpyTag (designed binder)”, the maximum percentage of IgG conjugated to a single pAbBD-SC/ST in experiment [2] was determined as 40%.
